Results as given in US20240101710A1.

Experiments:
[1] = target: anti-BCMA scFv P5A2; test: Biacore (SPR); H6 purified from hybridoma
[2] = target: anti-BCMA CAR clone P5A2 expressed on the cell surface; test: flow cytometry, anti-id staining on the PE-A axis against APC-A, Anti-BCMA CAR Clone P5A2 cells; Q2 prints 0.42, Q4 33.1, Q1 0.15
[3] = target: anti-BCMA scFv P5A2; test: Biacore (SPR); recombinant H6
[4] = target: anti-BCMA CAR clone P5A2 expressed on the cell surface; test: flow cytometry, SSC against CAR (anti-id) staining, cell line Anti-BCMA CAR clone P5A2, recombinant H6 at '0.063G' as printed; Q4 prints 72.4
[5] = target: anti-BCMA CAR clone P5A2 expressed on the cell surface; test: flow cytometry, SSC against CAR (anti-id) staining, cell line Anti-BCMA CAR clone P5A2, hybridoma-derived H6 at '0.063G' as printed; Q4 prints 74.0

Sequence of anti-BCMA CAR clone P5A2 expressed on the cell surface (chain, as listed by the source limits assumed): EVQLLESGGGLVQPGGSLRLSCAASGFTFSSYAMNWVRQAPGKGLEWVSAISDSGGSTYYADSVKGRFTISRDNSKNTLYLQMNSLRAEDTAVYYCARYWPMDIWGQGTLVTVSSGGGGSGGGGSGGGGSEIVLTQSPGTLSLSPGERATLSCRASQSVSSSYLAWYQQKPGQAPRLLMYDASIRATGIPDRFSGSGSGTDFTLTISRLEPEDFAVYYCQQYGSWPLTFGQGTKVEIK

B1: anti-idiotypic antibody clone E2008.51H1.H6 (H6) (antibody, V domains shown)
VH: QVTLKESGPGILQPSQTLSLTCSFSGFSLNTSAMGVGWIRQPSGKGLEWLAHIWWNDDHYYNPALKSRVTISKDASNNQVFLKIASVVTADTATYYCARSIAPVVPTPFAYWGQGTLVTVSA
VL: DIQMTQSSSSFSVSLGDRVTITCKASEDIYNRLAWFQQKPGNAPRLLISGATRLETGVPSRFSGSGSGKDYTLSITSLQTEDVGTYYCQQYWSSSWTFGGGTKLEIK
**Q.** B1 was tested. Which Kd [1] did it give?
**A.** 3.73 nM

**Q.** And the koff [1]?
**A.** 0.00693 s⁻¹

**Q.** And the kon [1]?
**A.** 1.86e+06 M⁻¹ s⁻¹

**Q.** What about the t1/2 [1] of the same binder?
**A.** 1.67 min

**Q.** What about the percent of cells in anti-id-positive quadrant Q3 [2] of the same binder?
**A.** 66.3%

**Q.** And the Kd [3]?
**A.** 3.71 nM

**Q.** And the koff [3]?
**A.** 0.00705 s⁻¹

**Q.** What about the kon [3] of the same binder?
**A.** 1.9e+06 M⁻¹ s⁻¹

**Q.** And the t1/2 [3]?
**A.** 1.64 min

**Q.** What about the percent of cells in CAR-positive gate Q3 [4] of the same binder?
**A.** 27.6%

**Q.** And the percent of cells in CAR-positive gate Q3 [5]?
**A.** 26%
